From paper PMC2930062 (Journal of cellular biochemistry, 2010) come the findings set out here.

This assay deals with T1, RANBP17^1-252, GAL4 DNA binding domain fusion (pM) (human (cDNA library of DU145 cells), UniProt Q9H2T7 1-252).
T1 sequence (looked up): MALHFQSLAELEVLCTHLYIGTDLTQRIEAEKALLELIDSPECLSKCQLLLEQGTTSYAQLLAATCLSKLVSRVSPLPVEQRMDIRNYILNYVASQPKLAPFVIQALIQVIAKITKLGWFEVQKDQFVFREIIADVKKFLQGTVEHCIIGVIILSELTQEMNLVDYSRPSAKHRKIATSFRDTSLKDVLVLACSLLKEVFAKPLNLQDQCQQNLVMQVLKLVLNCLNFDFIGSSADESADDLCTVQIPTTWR
Kind of assay: two-hybrid.

B1: E12^508-654, VP16 activation domain fusion (pVP16) (domain or fragment, human, UniProt P15923 508-654, looked up)
chain: TSAADHSEEEKKELKAPRARTSPDEDEDDLLPPEQKAEREKERRVANNARERLRVRDINEAFKELGRMCQLHLNSEKPQTKLLILHQAVSVILNLEQQVRERNLNPKAACLKRREEEKVSGVVGDPQMVLSAPHPGLSEAHNPAGHM
Regarding B1, the “fold increase in luciferase activity against empty vector transfectants” value came to 5.7 fold.
